This note sets out measurements from patent US20260167721A1 (ABLEXIS, published 2026).

Assay [1] addresses T1, CD3 on human donor PBMC / Pan T effector cells (human, UniProt P07766 23-207; P09693 23-182; P04234 22-171; P20963 22-164). Put plainly: cell-based or functional assay.
Assay [2] deals with T1, CD3 on human donor PBMC / Pan T …. Put plainly: cell-based or functional assay. This is another data set of the same source.

T1 sequence (P07766 23-207, chain 1 of 4): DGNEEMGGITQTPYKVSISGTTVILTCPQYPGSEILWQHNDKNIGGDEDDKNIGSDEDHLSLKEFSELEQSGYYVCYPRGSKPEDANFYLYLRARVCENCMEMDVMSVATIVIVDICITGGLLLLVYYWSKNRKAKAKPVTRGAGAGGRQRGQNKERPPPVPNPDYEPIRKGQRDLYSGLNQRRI
T1 sequence (P09693 23-182, chain 2 of 4): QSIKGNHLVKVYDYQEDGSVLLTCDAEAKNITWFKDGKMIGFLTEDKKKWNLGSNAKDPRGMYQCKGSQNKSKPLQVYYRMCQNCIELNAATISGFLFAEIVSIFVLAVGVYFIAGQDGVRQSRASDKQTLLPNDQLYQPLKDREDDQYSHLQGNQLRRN
T1 sequence (P04234 22-171, chain 3 of 4): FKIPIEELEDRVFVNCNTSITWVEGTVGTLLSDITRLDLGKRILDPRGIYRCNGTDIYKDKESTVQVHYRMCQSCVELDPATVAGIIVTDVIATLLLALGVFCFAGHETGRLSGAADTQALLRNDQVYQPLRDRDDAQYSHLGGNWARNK
T1 sequence (P20963 22-164, chain 4 of 4): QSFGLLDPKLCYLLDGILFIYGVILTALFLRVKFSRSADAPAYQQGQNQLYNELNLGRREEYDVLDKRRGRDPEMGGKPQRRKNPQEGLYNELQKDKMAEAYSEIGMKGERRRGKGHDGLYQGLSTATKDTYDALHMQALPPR

B1: CD3 × CD33-BspAb71 (bispecific antibody)
chain 1: EVQLVESGGGLVKPGGSLRLSCAASGFTFSSYSMNWVRQAPGKCLEWVSSISRSSSYIYYADSVKGRFTLSRDNAKNSLYLQMNSLRGEDTAIYYCGRDGKGAIFLDYWGQGTLVTVSSGGGGSGGGGSGGGGSGGGGSSYELTQPPSVSVSPGQTARITCSGDALPKKYAYWYQQKSGQAPVLVIYEDSKRPSGIPERFSGSSSGTMATLTISGAQVEDEADYYCYSTHSSGNHRVFGCGTKLTVLDKTHTCPPCPAPEFEGGPSVFLFPPKPKDTLMISRTPEVTCVVVDVSHEDPEVKFNWYVDGVEVHNAKTKPREEQYNSTYRVVSVLTVLHQDWLNGKEYKCKVSNKALPASIEKTISKAKGQPREPQVYTLPPCREEMTKNQVSLWCLVKGFYPSDIAVEWESNGQPENNYKTTPPVLDSDGSFFLYSKLTVDKSRWQQGNVFSCSVMHEALHNHYTQKSLSLSPGK
chain 2: EVQLVQSGAEVKKPGSSVKVSCKASGYTITDSNIHWVRQAPGQSLEWIGYIYPYNGGTDYNQKFKNRATLTVDNPTNTAYMELSSLRSEDTAFYYCVNGNPWLAYWGQGTLVTVSSASTKGPSVFPLAPSSKSTSGGTAALGCLVKDYFPEPVTVSWNSGALTSGVHTFPAVLQSSGLYSLSSVVTVPSSSLGTQTYICNVNHKPSNTKVDKRVEPKSCDKTHTCPPCPAPEFEGGPSVFLFPPKPKDTLMISRTPEVTCVVVDVSHEDPEVKFNWYVDGVEVHNAKTKPREEQYNSTYRVVSVLTVLHQDWLNGKEYKCKVSNKALPASIEKTISKAKGQPREPQVCTLPPSREEMTKNQVSLSCAVKGFYPSDIAVEWESNGQPENNYKTTPPVLDSDGSFFLVSKLTVDKSRWQQGNVFSCSVMHEALHNRFTQKSLSLSPGK
chain 3: DIQLTQSPSTLSASVGDRVTITCRASESLDNYGIRFLTWFQQKPGKAPKLLMYAASNQGSGVPSRFSGSGSGTEFTLTISSLQPDDFATYYCQQTKEVPWSFGQGTKVEVKRTVAAPSVFIFPPSDEQLKSGTASVVCLLNNFYPREAKVQWKVDNALQSGNSQESVTEQDSKDSTYSLSSTLTLSKADYEKHKVYACEVTHQGLSSPVTKSFNRGEC
B1: in assay [1], the “Cytokine Release Assay (TNFα) Donor 0 gMFI max” value amounted to 44100 gMFI, the “Cytokine Release Assay (TNFα) Donor 1 gMFI max” value worked out at 5470 gMFI, the “Cytokine Release Assay (TNFα) Donor 2 EC50” value was found to be 0.396 nM and the “Cytokine Release Assay (TNFα) Donor 2 gMFI max” value is 16700 gMFI. Also, the “Cytokine Release Assay (TNFα) Donor 3 gMFI max” value in assay [1] was determined as 28200 gMFI. In assay [2], the “Cytokine Release Assay (IL2) Donor 0 EC50” value came to 3.03 nM, the “Cytokine Release Assay (IL2) Donor 0 gMFI max” value stood at 65500 gMFI, the “Cytokine Release Assay (IL2) Donor 1 gMFI max” value was 24400 gMFI and the “Cytokine Release Assay (IL2) Donor 2 EC50” value worked out at 0.0725 nM. In addition, in assay [2], the “Cytokine Release Assay (IL2) Donor 2 gMFI max” value amounted to 30900 gMFI, the “Cytokine Release Assay (IL2) Donor 3 EC50” value was 2.16 nM and the “Cytokine Release Assay (IL2) Donor 3 gMFI max” value was determined as 127000 gMFI.
